US20130012436A1 (Bristol-Myers Squibb, published 2013)
Changes are numbered by the printed parent chain.

What was measured:
rhesus serum albumin [1] = target: T1, rhesus serum albumin (rhesus, UniProt Q28522 17-600); experiment: SPR (Biacore), albumin captured on CM5 chip, SABA flowed
T1 construct: also called RhSA
Experimental: (§1) The kinetics of selected SABA clones purified from HTPP and/or midscaled material were determined by capturing the respective serum albumin (HSA/RhSA/MuSA) on the surface of a Biasensor CM5 chip and flowing a concentration series of SABAs over both the reference flow cell and the captured albumins. In addition, binding to albumin was carried out under various pH conditions ranging from pH 5.5 to pH 7.4. […] SABA1.1 fits biochemical criteria for pH resistance and affinity/kinetics down to pH 5.5. […]

human serum albumin [2] = target: T2, human serum albumin (human, UniProt P02768 25-609); experiment: as above
T2 construct: also called HSA
Experimental: as §1

murine serum albumin [3] = target: T3, murine serum albumin (mouse, UniProt P07724 25-608); experiment: SPR, albumin captured on CM5 chip
T3 construct: also called MuSA; mouse serum albumin
Experimental: The kinetics of selected SABA clones purified from HTPP and/or midscaled material were determined by capturing the respective serum albumin (HSA/RhSA/MuSA) on the surface of a Biasensor CM5 chip and flowing a concentration series of SABAs over both the reference flow cell and the captured albumins. In addition, binding to albumin was carried out under various pH conditions ranging from pH 5.5 to pH 7.4. […] SABA1.1 fits biochemical criteria for pH resistance and affinity/kinetics down to pH 5.5.

rhesus serum albumin [4] = target: T1, rhesus serum albumin; experiment: SPR, MES buffer, pH 7.4
human serum albumin [5] = target: T2, human serum albumin; experiment: SPR, MES buffer, pH 7.4
rhesus serum albumin [6] = target: T1, rhesus serum albumin; experiment: SPR, HBS-P buffer, 37 C
human serum albumin [7] = target: T2, human serum albumin; experiment: SPR, HBS-P buffer, 37 C
rat serum albumin = rat serum albumin (rat, UniProt P02770 25-608); experiment: SPR and direct binding ELISA
rhesus serum albumin [8] = target: T1, rhesus serum albumin; experiment: SPR, MES buffer, pH 5.5
human serum albumin [9] = target: T2, human serum albumin; experiment: SPR, MES buffer, pH 5.5
rhesus serum albumin [10] = target: T1, rhesus serum albumin; experiment: SPR, HBS-P buffer, 25 C
human serum albumin [11] = target: T2, human serum albumin; experiment: SPR, HBS-P buffer, 25 C
murine serum albumin [12] = target: T3, murine serum albumin; experiment: SPR, HBS-P buffer, 25 C
rhesus serum albumin [13] = target: T1, rhesus serum albumin; experiment: SPR, HBS-P buffer
human serum albumin [14] = target: T2, human serum albumin; experiment: SPR, HBS-P buffer
human IL-12 = target: T4, human IL-12 (human, UniProt P29459 23-219; P29460 23-328); experiment: SPR, Adnectin captured on immobilized anti-His antibody
T4 construct: heterodimeric cytokine; also called recombinant human IL-12
T4 sequence (looked up) 1: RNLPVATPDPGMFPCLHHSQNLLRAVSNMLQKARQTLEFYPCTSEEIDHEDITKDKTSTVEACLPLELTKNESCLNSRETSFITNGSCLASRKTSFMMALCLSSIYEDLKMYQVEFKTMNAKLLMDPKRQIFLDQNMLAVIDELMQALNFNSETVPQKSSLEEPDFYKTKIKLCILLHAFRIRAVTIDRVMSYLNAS
T4 sequence (looked up) 2: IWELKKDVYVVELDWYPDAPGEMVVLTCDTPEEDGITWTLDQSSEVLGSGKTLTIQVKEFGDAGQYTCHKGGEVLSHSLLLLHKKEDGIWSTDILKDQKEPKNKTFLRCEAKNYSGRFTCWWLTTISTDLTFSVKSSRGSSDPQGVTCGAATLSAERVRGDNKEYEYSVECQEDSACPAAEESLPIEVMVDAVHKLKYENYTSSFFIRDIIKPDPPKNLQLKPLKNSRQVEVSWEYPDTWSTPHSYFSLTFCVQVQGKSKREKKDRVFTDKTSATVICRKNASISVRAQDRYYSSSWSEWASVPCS
Experimental: Adnectins listed in Table 2 as well as ATI001016 were used to examine the biochemical selectivity towards IL-23/IL-12. The binding analysis involved the capture of anti-IL-23 Adnectins on immobilized anti-His antibody followed by flow of IL-23 or IL-12 over the Adnectin. The selectivity of the Adnectins for IL-23 was assessed by comparing the binding signal for a 100 fold higher concentration of IL-12 over IL-23.

human IL-23 [15] = target: T5, human IL-23 (human, UniProt Q9NPF7 20-189; P29460 23-328); experiment: KinExA, solution phase, adnectin titrated, unbound IL-23 captured on non-PEGylated ATI001045 matrix
T5 construct: also called hIL-23; human recombinant IL-23
T5 sequence (looked up) 1: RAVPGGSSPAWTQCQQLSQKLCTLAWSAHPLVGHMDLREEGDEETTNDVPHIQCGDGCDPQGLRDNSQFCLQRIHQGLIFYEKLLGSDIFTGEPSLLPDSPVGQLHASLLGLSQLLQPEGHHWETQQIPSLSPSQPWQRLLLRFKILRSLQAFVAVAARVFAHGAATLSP
T5 sequence (looked up) 2: T4 sequence (looked up) 2
Experimental: The solution affinity of ATI001045 and ATI001047 for human IL-23 was also measured using an alternate format in the KinExA. Duplicate titrations of adnectins were performed for each of three (ATI001045) or single (ATI001047) concentrations of human IL-23 (quadruplicate for the lowest concentration). The relative unbound human IL-23 concentration was measured by capture on a non-PEGylated ATI001045 solid matrix followed by detection with a fluorescently labeled antibody that recognizes the p40 subunit of hIL-23.

human IL-23 [16] = target: T5, human IL-23; experiment: SPR (ProteOn XPR), human IL-23 directly immobilized, 25 C
Experimental: (§2) The binding characteristics were characterized by Surface Plasmon Resonance (SPR). Human IL-23 was immobilized at two to four levels in one dimension of a ProteOn XPR (Bio-Rad) chip surfaces and exposed to 6 different concentrations of anti-IL-23 adnectins in the other dimension of the same SPR chip surface. This allowed kinetic determination in the absence of regeneration. Duplicate chips were used for kinetic determinations at 25° C. and 37° C. Evaluation of the kinetic parameters was performed using the Langmuir interaction model and constant parameter fitting with the ProteOn Manager software.
(§3) Even at 37° C. the off rates were close to the limit of detection for SPR technologies so it is possible that the reported dissociation constant measurements are under-estimates.

human IL-23 [17] = target: T5, human IL-23; experiment: KinExA, solution phase, hIL-23 titrated, unbound ATI001045 captured on IL-23 matrix
Experimental: The solution affinity of ATI001045 for human IL-23 was measured using a Kinetic Exclusion Assay (KinExA). In one format duplicate titrations of hIL-23 were performed for each of three concentrations. The relative unbound ATI001045 concentration was measured by capture on a human IL-23 solid matrix followed by detection with a fluorescently labeled antibody that recognizes the Adnectin scaffold. Due to technical limitations, the lowest concentration that could be tested was 0.75 nM.

human IL-23 [18] = target: T5, human IL-23; experiment: cell-based or functional assay
human IL-23 [19] = target: T5, human IL-23; experiment: SPR (ProteOn XPR), human IL-23 directly immobilized, 37 C
Experimental: as §2, §3

T1 sequence (Q28522 17-600 limits assumed): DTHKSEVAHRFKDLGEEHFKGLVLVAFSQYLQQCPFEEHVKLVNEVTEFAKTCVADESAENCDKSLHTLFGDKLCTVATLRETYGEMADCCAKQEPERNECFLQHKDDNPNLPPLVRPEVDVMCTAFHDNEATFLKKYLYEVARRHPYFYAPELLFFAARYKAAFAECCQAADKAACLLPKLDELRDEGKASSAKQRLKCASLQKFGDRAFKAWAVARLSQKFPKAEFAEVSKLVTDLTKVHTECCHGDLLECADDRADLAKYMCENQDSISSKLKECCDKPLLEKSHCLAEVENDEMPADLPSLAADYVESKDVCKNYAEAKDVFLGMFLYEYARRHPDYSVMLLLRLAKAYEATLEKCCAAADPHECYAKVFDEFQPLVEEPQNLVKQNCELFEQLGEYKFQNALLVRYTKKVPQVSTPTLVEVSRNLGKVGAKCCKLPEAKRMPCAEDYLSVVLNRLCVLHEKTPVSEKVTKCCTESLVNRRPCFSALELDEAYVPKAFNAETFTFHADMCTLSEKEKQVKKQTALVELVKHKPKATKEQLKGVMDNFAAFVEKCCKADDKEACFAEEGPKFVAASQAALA
T2 sequence (P02768 25-609 limits assumed): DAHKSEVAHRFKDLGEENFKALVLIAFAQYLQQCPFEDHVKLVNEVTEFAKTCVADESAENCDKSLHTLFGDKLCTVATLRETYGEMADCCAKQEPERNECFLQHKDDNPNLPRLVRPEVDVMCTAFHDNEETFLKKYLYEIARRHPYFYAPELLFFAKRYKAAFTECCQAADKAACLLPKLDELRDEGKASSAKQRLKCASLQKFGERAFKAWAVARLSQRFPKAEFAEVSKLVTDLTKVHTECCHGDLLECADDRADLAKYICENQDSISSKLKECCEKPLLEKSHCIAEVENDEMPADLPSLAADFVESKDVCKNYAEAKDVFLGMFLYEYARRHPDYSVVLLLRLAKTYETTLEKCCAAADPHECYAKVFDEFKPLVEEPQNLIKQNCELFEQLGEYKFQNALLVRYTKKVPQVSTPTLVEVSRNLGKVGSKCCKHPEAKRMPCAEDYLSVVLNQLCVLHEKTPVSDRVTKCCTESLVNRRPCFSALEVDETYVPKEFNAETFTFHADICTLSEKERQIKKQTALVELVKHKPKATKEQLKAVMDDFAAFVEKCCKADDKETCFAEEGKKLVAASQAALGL
Sequence of rat serum albumin (P02770 25-608 limits assumed): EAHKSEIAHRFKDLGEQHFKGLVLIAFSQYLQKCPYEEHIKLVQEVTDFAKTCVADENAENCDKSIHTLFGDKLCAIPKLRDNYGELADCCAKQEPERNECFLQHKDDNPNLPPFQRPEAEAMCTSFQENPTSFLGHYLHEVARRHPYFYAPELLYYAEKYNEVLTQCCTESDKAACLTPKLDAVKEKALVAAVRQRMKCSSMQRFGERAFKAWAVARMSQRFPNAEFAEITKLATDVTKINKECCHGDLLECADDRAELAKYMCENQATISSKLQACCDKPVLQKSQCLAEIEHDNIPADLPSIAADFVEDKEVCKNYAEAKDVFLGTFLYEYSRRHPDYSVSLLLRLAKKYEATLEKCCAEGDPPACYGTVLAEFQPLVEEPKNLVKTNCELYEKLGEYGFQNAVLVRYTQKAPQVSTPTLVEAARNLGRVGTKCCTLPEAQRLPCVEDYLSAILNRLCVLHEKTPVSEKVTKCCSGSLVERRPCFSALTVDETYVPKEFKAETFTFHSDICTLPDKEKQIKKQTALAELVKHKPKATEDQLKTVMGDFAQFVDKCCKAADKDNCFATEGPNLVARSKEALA

B1: SABA1.1 (designed binder)
chain: MGVSDVPRDLEVVAATPTSLLISWHSYYEQNSYYRITYGETGGNSPVQEFTVPYSQTTATISGLKPGVDYTITVYAVYGSKYYYPISINYRTEIDKPSQHHHHHH
**Q.** With B1 as the binder, how does the Kd (rhesus serum albumin [1]) read?
**A.** 778 nM

**Q.** What about the koff (rhesus serum albumin [1]) of the same binder?
**A.** 0.00545 s⁻¹

**Q.** And the Kd (human serum albumin [2])?
**A.** 47.2 nM

**Q.** What about the koff (human serum albumin [2]) of the same binder?
**A.** 0.000457 s⁻¹

**Q.** Does B1 bind (murine serum albumin [3])?
**A.** no binding

B2: SABA1.2 (designed binder)
chain: MGVSDVPRDLEVVAATPTSLLISWHSYYEQNSYYRITYGETGGNSPVQEFTVPYSQTTATISGLKPGVDYTITVYAVYGSKYYYPISINYRTEIEDEDEDEDED
notes: core 1 with (ED)5 extension
**Q.** Which results are given for B2?
**A.** Kd (rhesus serum albumin [4]): 479 nM; koff (rhesus serum albumin [4]): 0.00295 s⁻¹; kon (rhesus serum albumin [4]): 6160 M⁻¹ s⁻¹; Kd (human serum albumin [5]): 41.9 nM; koff (human serum albumin [5]): 0.000388 s⁻¹; kon (human serum albumin [5]): 9260 M⁻¹ s⁻¹; Kd (rhesus serum albumin [6]): 977 nM; koff (rhesus serum albumin [6]): 0.0185 s⁻¹; kon (rhesus serum albumin [6]): 18900 M⁻¹ s⁻¹; Kd (human serum albumin [7]): 24.1 nM; koff (human serum albumin [7]): 0.000815 s⁻¹; kon (human serum albumin [7]): 33800 M⁻¹ s⁻¹; binding result (rat serum albumin): no binding (tested: 1 µM); Kd (rhesus serum albumin [8]): 359 nM; koff (rhesus serum albumin [8]): 0.00272 s⁻¹; kon (rhesus serum albumin [8]): 7570 M⁻¹ s⁻¹; Kd (human serum albumin [9]): 28.6 nM; koff (human serum albumin [9]): 0.00027 s⁻¹; kon (human serum albumin [9]): 9440 M⁻¹ s⁻¹; Kd (rhesus serum albumin [10]): 580 nM; koff (rhesus serum albumin [10]): 0.00378 s⁻¹; kon (rhesus serum albumin [10]): 6600 M⁻¹ s⁻¹; Kd (human serum albumin [11]): 55.3 nM; koff (human serum albumin [11]): 0.000443 s⁻¹; kon (human serum albumin [11]): 8210 M⁻¹ s⁻¹; binding result (murine serum albumin [12]): no binding (tested: up to 1 µM); affinity at 37 C relative to 25 C (rhesus serum albumin [13]): 0.5 fold; fold increase in affinity at 37 C against 25 C (human serum albumin [14]): ~2 fold

B3: ATI001016 (designed binder)
chain: MGVSDVPRDLEVVAATPTSLLISWGHYPLHVRYYRITYGETGGNSPVQEFTVPSRKYTATISGLKPGVDYTITVYAVTYYKEANYREIPISINYRTGSGC
modifications: pegylated at the C-terminal GSGC linker (Cys)
notes: not shown: his-tag
**Q.** Does B3 bind (human IL-12)?
**A.** no binding (tested: 1 µM)

B4: ATI001047 (designed binder)
chain: B3 chain with S54P, K56S, Y57H, K81A, E82Q, A83E, R86K
modifications: pegylated at the C-terminal GSGC linker (Cys)
**Q.** For B4, which Kd (human IL-23 [15]) is on record?
**A.** 0.0363 nM

**Q.** What about the Kd (human IL-23 [16]) of the same binder?
**A.** 1.6 nM

**Q.** And the koff (human IL-23 [16])?
**A.** 2e-05 s⁻¹

**Q.** What about the kon (human IL-23 [16]) of the same binder?
**A.** 13000 M⁻¹ s⁻¹

B5: ATI001045 (designed binder)
chain: B3 chain
modifications: pegylated at the C-terminal GSGC linker (Cys)
**Q.** How did the Kd (human IL-23 [15]) turn out when B5 was run?
**A.** 0.0094 nM

**Q.** What about the Kd (human IL-23 [17]) of the same binder?
**A.** 0.051 nM

**Q.** What about the Kd (human IL-23 [16]) of the same binder?
**A.** 0.17 nM

**Q.** And the koff (human IL-23 [16])?
**A.** 2.5e-05 s⁻¹

**Q.** And the kon (human IL-23 [16])?
**A.** 150000 M⁻¹ s⁻¹

**Q.** And the “IL-17 production by human T cells, EC50” value (human IL-23 [18])?
**A.** 2 nM

**Q.** And the Kd (human IL-23 [19])?
**A.** 0.27 nM

**Q.** And the koff (human IL-23 [19])?
**A.** 5.5e-05 s⁻¹

**Q.** And the kon (human IL-23 [19])?
**A.** 203000 M⁻¹ s⁻¹
